Values of other authors as cited in article PMC8044989.

Biological target: RXFP3 (Homo sapiens) (UniProt Q9NSD7)
UniProt Q9NSD7, sequence (Q9NSD7 whole entry): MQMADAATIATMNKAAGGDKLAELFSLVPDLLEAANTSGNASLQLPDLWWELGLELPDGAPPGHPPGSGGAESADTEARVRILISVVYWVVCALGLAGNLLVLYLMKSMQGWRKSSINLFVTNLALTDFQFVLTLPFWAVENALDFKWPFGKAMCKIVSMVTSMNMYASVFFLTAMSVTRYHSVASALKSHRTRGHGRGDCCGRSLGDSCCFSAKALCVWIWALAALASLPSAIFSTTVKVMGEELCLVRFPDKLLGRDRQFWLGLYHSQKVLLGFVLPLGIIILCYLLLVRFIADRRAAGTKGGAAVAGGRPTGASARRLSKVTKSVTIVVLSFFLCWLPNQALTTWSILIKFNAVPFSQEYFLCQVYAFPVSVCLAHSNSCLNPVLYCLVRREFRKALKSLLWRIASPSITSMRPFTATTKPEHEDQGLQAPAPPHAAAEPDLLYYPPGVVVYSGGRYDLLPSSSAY

In the case of relaxin-3 (from UniProt Q8WXF3), the Kd is listed as 0.3 nM.
